Reference: paper PMC10349818

Assays:
[1] = biological target: NavAb N49K/L176Q mutant (Arcobacter butzleri) (UniProt A8EVM5); assay: crystal structure; protein in DMPC:CHAPSO bicelles, sitting-drop vapour diffusion at 20 °C; cryoprotectant with 2.5 M sodium chloride, with or without 100 mM calcium nitrate; homotetramer around the four-fold axis
[2] = biological target: NavAb N49K/L176G mutant (Arcobacter butzleri) (UniProt A8EVM5); assay: as above

Substance	stoichiometry N [1]	stoichiometry N [2]
NavAb N49K/L176Q mutant (from UniProt A8EVM5 1-267) (natural protein)	4	–
NavAb N49K/L176G mutant (from UniProt A8EVM5 1-267) (natural protein)	–	4
